Data as given in patent US20220153832A1 (PIONYR IMMUNOTHERAPEUTICS, published 2022).

Key:
[1] = target: T1, Mouse MARCO, full length, on cells (mouse, UniProt Q60754 1-518); test: flow cytometry, 293T (MuMARCO)
T1 construct: whole, on cells; the cell type is named under assay; also called muMARCO; MuMARCO
T1 sequence (looked up): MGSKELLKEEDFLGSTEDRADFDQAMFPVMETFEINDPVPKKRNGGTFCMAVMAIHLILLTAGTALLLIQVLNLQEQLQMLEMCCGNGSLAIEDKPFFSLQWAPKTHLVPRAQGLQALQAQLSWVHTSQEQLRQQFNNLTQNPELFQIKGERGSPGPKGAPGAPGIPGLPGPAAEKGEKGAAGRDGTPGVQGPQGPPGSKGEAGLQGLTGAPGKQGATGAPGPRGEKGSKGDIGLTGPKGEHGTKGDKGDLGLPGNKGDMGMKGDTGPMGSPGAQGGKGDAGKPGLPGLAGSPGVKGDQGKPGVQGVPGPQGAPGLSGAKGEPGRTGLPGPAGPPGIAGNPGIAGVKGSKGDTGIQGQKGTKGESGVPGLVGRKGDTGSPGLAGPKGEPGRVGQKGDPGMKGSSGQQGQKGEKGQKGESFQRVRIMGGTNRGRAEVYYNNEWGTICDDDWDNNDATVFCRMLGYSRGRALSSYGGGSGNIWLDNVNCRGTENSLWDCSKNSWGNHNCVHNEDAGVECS

[2] = target: T2, mVar3 (RG3028) (mouse, UniProt Q60754 150-518); test: binding to variant proteins, data not shown
T2 construct: Mouse MARCO with the human residues Q452, Y472 and K473 (already in the entry)
T2 chain: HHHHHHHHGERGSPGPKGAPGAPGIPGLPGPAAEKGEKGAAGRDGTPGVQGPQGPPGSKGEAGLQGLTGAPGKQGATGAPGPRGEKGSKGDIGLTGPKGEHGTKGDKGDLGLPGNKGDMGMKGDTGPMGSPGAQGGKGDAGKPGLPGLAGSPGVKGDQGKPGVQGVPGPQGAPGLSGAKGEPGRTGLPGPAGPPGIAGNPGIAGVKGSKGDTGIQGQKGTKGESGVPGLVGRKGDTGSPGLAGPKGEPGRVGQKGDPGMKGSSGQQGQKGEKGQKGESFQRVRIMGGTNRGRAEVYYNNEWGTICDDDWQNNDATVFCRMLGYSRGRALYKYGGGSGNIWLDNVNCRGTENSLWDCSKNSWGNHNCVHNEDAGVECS
How it was run: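 Binding to MARCO variant proteins was measured by biolayer interferometry at 37° C in ProbeLife kinetics buffer. Antibodies (200 nM) were captured on anti-mouse or anti-human Fc probes for 120 s between 60 s baselines. This was followed by association with 200 nM variant antigen and 5-10 minutes dissociation.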

[3] = target: T3, Cynomolgus MARCO, full length, on cells (cynomolgus, UniProt A0A2K5X0Z2 1-519); test: flow cytometry, cells overexpressing cyno MARCO
T3 construct: whole, on cells; also called cyno MARCO; CyMARCO
T3 sequence: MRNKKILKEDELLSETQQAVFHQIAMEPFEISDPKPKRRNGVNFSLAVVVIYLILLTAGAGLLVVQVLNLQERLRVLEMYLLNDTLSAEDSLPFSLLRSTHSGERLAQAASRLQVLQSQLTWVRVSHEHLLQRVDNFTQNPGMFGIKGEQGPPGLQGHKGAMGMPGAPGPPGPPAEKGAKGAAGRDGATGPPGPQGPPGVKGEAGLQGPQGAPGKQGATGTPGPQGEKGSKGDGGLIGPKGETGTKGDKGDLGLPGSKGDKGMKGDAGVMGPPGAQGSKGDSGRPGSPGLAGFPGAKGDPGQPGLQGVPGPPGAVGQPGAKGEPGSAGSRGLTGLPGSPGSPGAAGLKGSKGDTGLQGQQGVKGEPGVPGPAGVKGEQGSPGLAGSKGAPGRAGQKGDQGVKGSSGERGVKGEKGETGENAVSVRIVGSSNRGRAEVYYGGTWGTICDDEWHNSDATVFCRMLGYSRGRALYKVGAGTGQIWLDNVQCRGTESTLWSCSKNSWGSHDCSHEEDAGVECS

[4] = target: T4, N-terminally polyhistidine tagged human MARCO ECD (147-520), recombinant (human, UniProt Q9UEW3 147-520); test: Biacore, recombinant human MARCO; control sample
T4 construct: also called PI-RG-3000; recombinant human MARCO; not shown: N-terminal polyhistidine tag
T4 sequence: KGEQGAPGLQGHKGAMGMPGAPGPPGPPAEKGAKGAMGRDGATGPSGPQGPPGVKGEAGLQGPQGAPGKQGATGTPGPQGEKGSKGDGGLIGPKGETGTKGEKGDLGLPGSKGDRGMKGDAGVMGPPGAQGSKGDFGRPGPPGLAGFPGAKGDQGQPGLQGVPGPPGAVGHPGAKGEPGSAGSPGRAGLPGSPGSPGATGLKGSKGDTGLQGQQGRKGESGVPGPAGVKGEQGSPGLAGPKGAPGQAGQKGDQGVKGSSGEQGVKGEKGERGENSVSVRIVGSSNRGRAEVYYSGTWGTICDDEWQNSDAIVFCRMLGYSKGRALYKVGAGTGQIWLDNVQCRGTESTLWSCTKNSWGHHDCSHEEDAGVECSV

[5] = target: T4, N-terminally polyhistidine tagged human …; test: Biacore; sample stressed 40 C 2 week
Experimental: (§1) Binding of the stressed samples to recombinant human MARCO was assessed by Biacore.

[6] = target: T4, N-terminally polyhistidine tagged human …; test: Biacore; oxidation stress sample (1 mM AAPH, 6 hrs)
[7] = target: T4, N-terminally polyhistidine tagged human …; test: Biacore; sample oxidized with 1.5% H2O2 (24 hr, RT)
Experimental: (PBS)+1 mM AAPH for 6 h, 0.5 and 1.5% H₂O₂ in PBS for 24 h, which was compared to a previous experiment at 40° C. (PBS)+1 mM AAPH for 6 h. Post treatment the samples were analyzed by LC-MS/MS which identified the % modification on isolated peptides derived from the antibody after trypsin digest.
as §1

B1: PI-HX-3061 (antibody, rat IgG2a)
heavy: EVQLVESGGGLVQPGSSLKLSCVASKFTFSNYGMNWIRQAPKKGLEWIALIYYNSNNKYYADSVKGRFTISRDNSKNTLYLEMNSLRSEDTAMYYCAKSLTGGSDYFDSWGQGVMVTVSSAETTAPSVYPLAPGTALKSNSMVTLGCLVKGYFPEPVTVTWNSGALSSGVHTFPAVLQSGLYTLTSSVTVPSSTWPSQTVTCNVAHPASSTKVDKKIVPRNCGGDCKPCICTGSEVSSVFIFPPKPKDVLTITLTPKVTCVVVDISQDDPEVHFSWFVDDVEVHTAQTRPPEEQFNSTFRSVSELPILHQDWLNGRTFRCKVTSAAFPSPIEKTISKPEGRTQVPHVYTMSPTKEEMTQNEVSITCMVKGFYPPDIYVEWQMNGQPQENYKNTPPTMDTDGSYFLYSKLNVKKEKWQQGNTFTCSVLHEGLHNHHTEKSLSHSP
light: DVQMTQSPSYLAASPGESVSISCKASKSIGTFLAWYQEKPEKTNKLLIYSGSTLQSGTPSRFSGSGSGTDFTLTIRNLEPEDFAVYYCQQHDEYPFTFGSGTKLEIKRADAAPTVSIFPPSTEQLATGGASVVCLMNNFYPRDISVKWKIDGTERRDGVLDSVTDQDSKDSTYSMSSTLSLTKADYESHNLYTCEVVHKTSSSPVVKSFNRNEC
notes: Parental rat hybridoma, rat IgG2a; cross reactive with human and mouse MARCO
EC50 [1]: 1.52 nM

B2: PI-3010-AB (antibody, human IgG1, kappa)
heavy: not shown
light: DIQMTQSPASLSTSLGETVSIECLASEGISNDLAWYQQKSGKSPQLLIYAASRLQDGVPSRFSGSGSGTRYSLKISGMQPEDEADYFCQQSYKYPLTFGSGTKLEIKRTVAAPSVFIFPPSDEQLKSGTASVVCLLNNFYPREAKVQWKVDNALQSGNSQESVTEQDSKDSTYSLSSTLTLSKADYEKHKVYACEVTHQGLSSPVTKSFNRGEC
binding result [2]: binds | EC50 [3]: 0.34 nM

B3: PI-3015-AB (antibody, human IgG1, kappa)
heavy: not shown
light: DIQMTQSPSSLSASVGDRVTITCRASEGISNDLAWYQQKPGKAPKLLIYAASRLQSGVPSRFSGSGSGTDYTLTISSMQPEDFATYYCQQSYKYPLTFGQGTKLEIKRTVAAPSVFIFPPSDEQLKSGTASVVCLLNNFYPREAKVQWKVDNALQSGNSQESVTEQDSKDSTYSLSSTLTLSKADYEKHKVYACEVTHQGLSSPVTKSFNRGEC
Kd [4]: 0.97 nM | Kd [5]: 1.2 nM | Kd [6]: 1.29 nM | Kd [7]: 1.07 nM
